Assay results taken from patent US20060024724A1.

Molecular target: oncofetal fibronectin (human) (UniProt P02751)
Assay: lateral-flow sandwich test strip (mobile FDC-6 conjugate, goat polyclonal anti-fibronectin capture), TLiIQ reflectance reader, at 50 ng/ml oncofetal fibronectin

UniProt P02751, sequence (P02751 32-2477): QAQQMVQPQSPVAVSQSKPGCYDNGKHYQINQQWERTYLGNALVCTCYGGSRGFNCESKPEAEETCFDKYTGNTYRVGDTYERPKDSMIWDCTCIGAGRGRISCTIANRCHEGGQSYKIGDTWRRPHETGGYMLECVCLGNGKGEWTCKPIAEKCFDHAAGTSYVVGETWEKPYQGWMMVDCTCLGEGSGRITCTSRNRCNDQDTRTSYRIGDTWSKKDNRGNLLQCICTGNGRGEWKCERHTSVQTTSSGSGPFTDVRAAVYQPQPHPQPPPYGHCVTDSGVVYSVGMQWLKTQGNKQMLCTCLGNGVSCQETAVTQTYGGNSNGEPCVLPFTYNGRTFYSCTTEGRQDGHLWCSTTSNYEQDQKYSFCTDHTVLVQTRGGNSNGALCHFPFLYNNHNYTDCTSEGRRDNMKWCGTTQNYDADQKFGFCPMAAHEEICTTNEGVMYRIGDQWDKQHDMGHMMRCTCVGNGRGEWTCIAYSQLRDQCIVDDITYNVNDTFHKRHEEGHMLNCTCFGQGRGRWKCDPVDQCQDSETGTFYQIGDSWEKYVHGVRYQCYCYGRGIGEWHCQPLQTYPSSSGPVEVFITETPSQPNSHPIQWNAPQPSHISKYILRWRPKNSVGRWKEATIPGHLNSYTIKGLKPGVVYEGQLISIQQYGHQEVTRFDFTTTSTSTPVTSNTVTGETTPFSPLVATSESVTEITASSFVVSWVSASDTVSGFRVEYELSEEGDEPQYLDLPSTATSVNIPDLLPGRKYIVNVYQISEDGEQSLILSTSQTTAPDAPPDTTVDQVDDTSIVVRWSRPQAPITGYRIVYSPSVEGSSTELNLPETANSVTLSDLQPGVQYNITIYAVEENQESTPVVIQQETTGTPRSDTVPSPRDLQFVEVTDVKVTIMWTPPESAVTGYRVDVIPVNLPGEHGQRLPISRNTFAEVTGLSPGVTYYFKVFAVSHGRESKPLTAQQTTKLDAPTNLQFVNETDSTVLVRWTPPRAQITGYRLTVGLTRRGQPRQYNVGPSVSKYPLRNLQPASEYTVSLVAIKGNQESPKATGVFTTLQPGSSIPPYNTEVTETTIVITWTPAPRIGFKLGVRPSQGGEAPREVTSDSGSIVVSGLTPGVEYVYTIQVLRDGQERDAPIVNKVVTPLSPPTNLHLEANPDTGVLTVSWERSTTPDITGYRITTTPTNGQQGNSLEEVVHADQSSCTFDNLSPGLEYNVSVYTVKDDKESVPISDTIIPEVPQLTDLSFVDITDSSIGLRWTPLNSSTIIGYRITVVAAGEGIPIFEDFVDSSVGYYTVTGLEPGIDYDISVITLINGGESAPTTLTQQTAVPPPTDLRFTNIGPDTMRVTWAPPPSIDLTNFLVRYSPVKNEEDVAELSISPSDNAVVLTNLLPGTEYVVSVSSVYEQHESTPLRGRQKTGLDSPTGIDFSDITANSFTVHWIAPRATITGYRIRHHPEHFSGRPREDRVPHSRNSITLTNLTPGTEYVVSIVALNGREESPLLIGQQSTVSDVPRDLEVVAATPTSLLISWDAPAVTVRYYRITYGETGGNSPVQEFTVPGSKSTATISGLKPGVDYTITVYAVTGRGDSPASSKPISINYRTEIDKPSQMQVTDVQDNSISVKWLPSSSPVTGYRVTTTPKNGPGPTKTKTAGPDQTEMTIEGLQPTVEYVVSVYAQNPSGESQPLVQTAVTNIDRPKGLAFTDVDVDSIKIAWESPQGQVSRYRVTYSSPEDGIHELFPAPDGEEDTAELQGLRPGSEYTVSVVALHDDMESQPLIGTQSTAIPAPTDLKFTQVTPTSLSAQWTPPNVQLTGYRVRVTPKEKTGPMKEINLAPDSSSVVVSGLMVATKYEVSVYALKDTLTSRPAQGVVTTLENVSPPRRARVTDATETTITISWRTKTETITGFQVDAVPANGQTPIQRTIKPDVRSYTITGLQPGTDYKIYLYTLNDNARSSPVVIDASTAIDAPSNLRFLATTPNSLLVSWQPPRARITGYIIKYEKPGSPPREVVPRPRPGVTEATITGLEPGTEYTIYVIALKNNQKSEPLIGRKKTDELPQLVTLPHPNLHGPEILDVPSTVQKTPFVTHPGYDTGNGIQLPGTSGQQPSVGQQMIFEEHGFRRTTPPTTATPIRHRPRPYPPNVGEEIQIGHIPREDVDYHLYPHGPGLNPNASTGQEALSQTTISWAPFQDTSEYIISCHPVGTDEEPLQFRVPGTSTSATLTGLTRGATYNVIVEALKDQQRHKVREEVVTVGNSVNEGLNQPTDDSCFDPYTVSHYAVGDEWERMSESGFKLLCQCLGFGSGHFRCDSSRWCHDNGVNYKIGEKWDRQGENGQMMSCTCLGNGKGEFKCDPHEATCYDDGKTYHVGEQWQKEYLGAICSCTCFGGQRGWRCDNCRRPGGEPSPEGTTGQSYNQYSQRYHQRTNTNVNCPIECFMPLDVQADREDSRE

**Q.** For “FDC-6 monoclonal antibody (produced by hybridoma ATCC HB 9018)”, which reflectance signal is on record?
**A.** Its reflectance signal is 0.315.
